Test results: patent US20210269780A1

Target: G3BP (human) (UniProt Q13283)

Row | Substance | percentage of cells with PABPC1-positive stress granules after sodium arsenite
1 | G3BPdi-mCherry-sspB (from UniProt Q13283) | 46 % of cells
2 | mCherry-sspB | 85 % of cells
